The supplement of paper PMC9170038

Tested on: K4 kissing-loop RNA reporter
Test: apparent KD of K4 kissing-loop reporter; higher = weaker reporter binding
Settings: Eterna round: R107
Method: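 RNA-MaP round R107: designed RNA switches with theophylline, tryptophan, arginine or FMN aptamers are transcribed on-chip within common flanks. They are titrated with a labelled K4 kissing-loop RNA reporter in RNA-MaP buffer (100 mM Tris pH 7.5, 80 mM KCl, 4 mM MgCl2), without ligand or with the indicated ligand. Median apparent KD per design.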

[1] = input ligand: theophylline 20 uM
[2] = input ligand: tryptophan 2.4 mM
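Also: bound reporter read as fluorescence of individual clusters on recovered sequencing chips by microscopy, with normalized cluster intensities fitted with a binding model.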

## UGUCAUUGGUCGGCCGCCACUUCAUAGAGAGUGAUGUUCUUAAAGACGGAUCGAAAGAUCUGUCGAAGGACCGGGACCGAUGACU [FiskerMod 9 - Jieux - Same State - Tryptophan B]
Input ligand: FMN 200 uM
  apparent KD of K4 kissing-loop reporter: 997 nM
Input ligand: arginine 13.2 mM
  apparent KD of K4 kissing-loop reporter: 676 nM
Input ligand: none
  apparent KD of K4 kissing-loop reporter: 1400 nM
[1]
  apparent KD of K4 kissing-loop reporter: 783 nM
[2]
  apparent KD of K4 kissing-loop reporter: 302 nM

## AAGCAGUCACUCGAACCCAUCGAAGAUGGUCGAGGACCGGUACGGCCGCCACUCGGAGUGAUGUUCCGCAGACUGCAAAAUAAAA
Input ligand: FMN 200 uM
  apparent KD of K4 kissing-loop reporter: 376 nM
Input ligand: arginine 13.2 mM
  apparent KD of K4 kissing-loop reporter: 464 nM
Input ligand: none
  apparent KD of K4 kissing-loop reporter: 426 nM
[1]
  apparent KD of K4 kissing-loop reporter: 511 nM
[2]
  apparent KD of K4 kissing-loop reporter: 312 nM

## UUACGAGUGAUGUUCGAAUAAAUCCAUUCAGAGGAUAUAGUAUUAACUAGAAGGCUGAAACCAACUUCGAGUCAUGUUCGAGGAU [Same State FMN A GF 2]
Input ligand: FMN 200 uM
  apparent KD of K4 kissing-loop reporter: 271 nM
Input ligand: arginine 13.2 mM
  apparent KD of K4 kissing-loop reporter: 324 nM
Input ligand: none
  apparent KD of K4 kissing-loop reporter: 277 nM
[1]
  apparent KD of K4 kissing-loop reporter: 514 nM
[2]
  apparent KD of K4 kissing-loop reporter: 269 nM

## GUAACCUUGCUCGAGUGAUGUUCGAGCGAAGGAGCGCGAGAAAUCGCAGGUAGGUCGCGCUCGAAAUUUGAGCGAACAAUUAUUA [Arg A Ex t2]
Input ligand: FMN 200 uM
  apparent KD of K4 kissing-loop reporter: 128 nM
Input ligand: arginine 13.2 mM
  apparent KD of K4 kissing-loop reporter: 125 nM
Input ligand: none
  apparent KD of K4 kissing-loop reporter: 138 nM
[1]
  apparent KD of K4 kissing-loop reporter: 123 nM
[2]
  apparent KD of K4 kissing-loop reporter: 113 nM

## CAUAGACAAGUGAUGUUUGUCAUAACCGAAGGAGCGUCUUUAAAGACAGGUAGGUCGCGGAUUAGUUAAGUUAUGAUUCUUUAUG [#19 K4 Arginine A Same State]
Input ligand: FMN 200 uM
  apparent KD of K4 kissing-loop reporter: 602 nM
Input ligand: arginine 13.2 mM
  apparent KD of K4 kissing-loop reporter: 492 nM
Input ligand: none
  apparent KD of K4 kissing-loop reporter: 704 nM
[1]
  apparent KD of K4 kissing-loop reporter: 659 nM
[2]
  apparent KD of K4 kissing-loop reporter: 453 nM

## AACGCAAGUUGUCUGGUAGACAUUUCAGAUACCAGACAUAGUGAUGUCCCUUGGCAGCUGAACAUCCAGUGAUGUUGGAUACGUU [Theo A SS t11a]
Input ligand: FMN 200 uM
  apparent KD of K4 kissing-loop reporter: 444 nM
Input ligand: arginine 13.2 mM
  apparent KD of K4 kissing-loop reporter: 394 nM
Input ligand: none
  apparent KD of K4 kissing-loop reporter: 513 nM
[1]
  apparent KD of K4 kissing-loop reporter: 507 nM
[2]
  apparent KD of K4 kissing-loop reporter: 400 nM

## UGGAGUUGACGAAAAGUCAACUCCCGAGAAGGAGCGGACGAAAGUCCAGGUAGGUCGCUCACUACCAGUGAUGUUGGUACUAAAA
Input ligand: FMN 200 uM
  apparent KD of K4 kissing-loop reporter: 148 nM
Input ligand: arginine 13.2 mM
  apparent KD of K4 kissing-loop reporter: 196 nM
Input ligand: none
  apparent KD of K4 kissing-loop reporter: 129 nM
[1]
  apparent KD of K4 kissing-loop reporter: 135 nM
[2]
  apparent KD of K4 kissing-loop reporter: 111 nM

## GGAUAGGACAGAGGAUAUCCUGAGGCAAGAAACUUGUCUCAUAAAGGAUGAAUCCUAGUGAUGUUAGGAGAAGGCUGUCCUAUCG [FmnBX 15 - #SwitchBubble #StaticStem #Palindromic]
Input ligand: FMN 200 uM
  apparent KD of K4 kissing-loop reporter: 172 nM
Input ligand: arginine 13.2 mM
  apparent KD of K4 kissing-loop reporter: 58.8 nM
Input ligand: none
  apparent KD of K4 kissing-loop reporter: 88 nM
[1]
  apparent KD of K4 kissing-loop reporter: 104 nM
[2]
  apparent KD of K4 kissing-loop reporter: 71.3 nM

## UGAUAGGACAGAAGGAGCGGUAGUGAUGUUACCAAAAGGAUAAGGUGUCAAAAGACACCCUGCCAGGUAGGUCGCUGUCCUAUCU
Input ligand: FMN 200 uM
  apparent KD of K4 kissing-loop reporter: 102 nM
Input ligand: arginine 13.2 mM
  apparent KD of K4 kissing-loop reporter: 100 nM
Input ligand: none
  apparent KD of K4 kissing-loop reporter: 107 nM
[1]
  apparent KD of K4 kissing-loop reporter: 98.8 nM
[2]
  apparent KD of K4 kissing-loop reporter: 87 nM

## GCCGUACGCAUGGAUACCAGCAACCCUGCCAUCCCAGUGAUGUUGGGAGGAACAUUCUCAUGCCCUUGGCAGCCAUGCGUACGGC
Input ligand: FMN 200 uM
  apparent KD of K4 kissing-loop reporter: 534 nM
Input ligand: arginine 13.2 mM
  apparent KD of K4 kissing-loop reporter: 358 nM
Input ligand: none
  apparent KD of K4 kissing-loop reporter: 473 nM
[1]
  apparent KD of K4 kissing-loop reporter: 384 nM
[2]
  apparent KD of K4 kissing-loop reporter: 459 nM

## AGUGAAGUUAGUGAUGUGUGAGUUUGGGAAGGAGCGCCGAGAACGGCAGGUAGGUCGCCCAGUGAUGUUGGUGUAAAGAUGAGAG [whbob_Ex_Arginine_A_2t121]
Input ligand: FMN 200 uM
  apparent KD of K4 kissing-loop reporter: 275 nM
Input ligand: arginine 13.2 mM
  apparent KD of K4 kissing-loop reporter: 184 nM
Input ligand: none
  apparent KD of K4 kissing-loop reporter: 239 nM
[1]
  apparent KD of K4 kissing-loop reporter: 232 nM
[2]
  apparent KD of K4 kissing-loop reporter: 208 nM

## UGCUUAGUGAUGUUUGAUUUGGUGCAUGCAGAGGAUAUAGGGUGCUUUAGAAGGCUGAGGAGUGCGCCGAGUGAUGUUCGGCGCU [Exclusion FMN A GF11]
Input ligand: FMN 200 uM
  apparent KD of K4 kissing-loop reporter: 192 nM
Input ligand: arginine 13.2 mM
  apparent KD of K4 kissing-loop reporter: 164 nM
Input ligand: none
  apparent KD of K4 kissing-loop reporter: 206 nM
[1]
  apparent KD of K4 kissing-loop reporter: 182 nM
[2]
  apparent KD of K4 kissing-loop reporter: 170 nM

## UGUGCCAACAGUGAUACCAGCGUGGAGUGAUGUUCCGAGGAUCGGAGUGAUGUUCCGAAGCGCCCUUGGCAGCGCAGAAGCGCGA [Exclusion Theophylline B GF 26]
Input ligand: FMN 200 uM
  apparent KD of K4 kissing-loop reporter: 239 nM
Input ligand: arginine 13.2 mM
  apparent KD of K4 kissing-loop reporter: 156 nM
Input ligand: none
  apparent KD of K4 kissing-loop reporter: 186 nM
[1]
  apparent KD of K4 kissing-loop reporter: 189 nM
[2]
  apparent KD of K4 kissing-loop reporter: 182 nM

## UAUUAAUUGACGGCCGCCACUAUGGUGAUUUAUUUGUUUGAGUGAUGUUUUGAUGUUUGAUUUUGUAGGACCGGGUUAUGUGUUA [pokcmullin]
Input ligand: FMN 200 uM
  apparent KD of K4 kissing-loop reporter: 962 nM
Input ligand: arginine 13.2 mM
  apparent KD of K4 kissing-loop reporter: 738 nM
Input ligand: none
  apparent KD of K4 kissing-loop reporter: 853 nM
[1]
  apparent KD of K4 kissing-loop reporter: 748 nM
[2]
  apparent KD of K4 kissing-loop reporter: 680 nM

## UAGCGUCUGCGAGGAUAUCGGAUUAGAGUGAUGUUCUAAAGACGCCCAGUGAUGUUGGAUGCGAUACGAGAAGGCGCUGGGCGCG [Same State FMN B GF7]
Input ligand: FMN 200 uM
  apparent KD of K4 kissing-loop reporter: 182 nM
Input ligand: arginine 13.2 mM
  apparent KD of K4 kissing-loop reporter: 358 nM
Input ligand: none
  apparent KD of K4 kissing-loop reporter: 399 nM
[1]
  apparent KD of K4 kissing-loop reporter: 332 nM
[2]
  apparent KD of K4 kissing-loop reporter: 297 nM

## UGAUAGGACAGAAGGAGCGGCAGUGAUGUUGCCAAAAGGUUAAGGUGUCAAAAGACACCCUGCCAGGUAGGUCGCUGUCCUAUCU
Input ligand: FMN 200 uM
  apparent KD of K4 kissing-loop reporter: 202 nM
Input ligand: arginine 13.2 mM
  apparent KD of K4 kissing-loop reporter: 236 nM
Input ligand: none
  apparent KD of K4 kissing-loop reporter: 212 nM
[1]
  apparent KD of K4 kissing-loop reporter: 214 nM
[2]
  apparent KD of K4 kissing-loop reporter: 208 nM

## AAUACAGUACAACCGAGUGGAACACAAAUACGAGGACCGGUACGGCCGCCACUCGUGCAGAAUUUCAGUGAUGUUGAAAUACUGC [Exclusion Tryptophan A GF 6]
Input ligand: FMN 200 uM
  apparent KD of K4 kissing-loop reporter: 165 nM
Input ligand: arginine 13.2 mM
  apparent KD of K4 kissing-loop reporter: 125 nM
Input ligand: none
  apparent KD of K4 kissing-loop reporter: 122 nM
[1]
  apparent KD of K4 kissing-loop reporter: 162 nM
[2]
  apparent KD of K4 kissing-loop reporter: 149 nM

## UGUAUGUGAUUUGAUACCAGACCAGCUGAUGGAUCACGAGUGAUGUUCGUGUUGGUUUGGGUCCCUUGGCAGCAAAUCGCAUACU [KL-SSTheoB14]
Input ligand: FMN 200 uM
  apparent KD of K4 kissing-loop reporter: 308 nM
Input ligand: arginine 13.2 mM
  apparent KD of K4 kissing-loop reporter: 282 nM
Input ligand: none
  apparent KD of K4 kissing-loop reporter: 324 nM
[1]
  apparent KD of K4 kissing-loop reporter: 248 nM
[2]
  apparent KD of K4 kissing-loop reporter: 285 nM
